Measured values reported in the nanobody polyreactivity screen of Harvey et al. (2022).

assay: yeast display, Sf9 membrane polyspecificity reagent, FACS + sequencing; frameworks hold sequencing errors
Summary of the method: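 Genes from sorted yeast were amplified by colony PCR, read by MiSeq 2 × 250 sequencing and filtered on CDR length. These cells carried a synthetic nanobody library in Saccharomyces cerevisiae BJ5465 and were sorted by FACS into low and high (top ~1%) gates on anti-HA and streptavidin fluorescence. Polyreactivity is labelled according to the gate of origin.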

Sequence | polyreactivity (PSR sort gate)
QVQLVESGGGLVQAGGSLRLSCAASGRIFERNAMGGDRQAPGKEREFVAASSWSGGSTHYADSVKGRFTSSRDNAKNTVYVQMNSLKPEDTAVYFCAARRRKAGRPSDRYYYWGQGTQVTVSS | high polyreactivity
QVQLVESGGGLVQAGGSLRLSCAASGRIFERYAMGWYRQAPGKERELVAGISISGGGTYYADSVKGRFTISRDNAKNTVYLEMNSLKPEDTAVYYCAATFPREDYGYWGQGTQVTVSS | low polyreactivity
QVQLVESGGGLVQAGGSLRLSCAASGRIFERYAMGWYRQAPGKERELVAGISISGGGTYYADSVKGRFTISRDNAKNTVYLQMNSLKPEDTAVYYCAATFPREEYGYWGQGTQVTVSS | low polyreactivity
QVQLVESGGGLVQAGGSLRLSCAASGRIFESYAMGWYRQAPGKERELVAAISSGGGTTYYADSVKGRFTISRDNAKNTVYLQMNSLKPEDTAVYYCAAGPWFYYWGQGTQVTVSS | low polyreactivity
QVQLVESGGGLVQAGGSLRLSCAASGRIFEWYAMGWYRQAPGKEREFVARITIGGRTYYADSVKGRFTISRDNAKNTVYFQMNSVKREDTAVYYCNAPYAWARPYIVSSTYDYWGQGTQVTVSS | high polyreactivity
QVQLVESGGGLVQAGGSLRLSCAASGRIFFHNAMGWYRQARGKERELVAAISYSGGSTYYADSVKGRFTIARDNAKNTVYLQMNSLKPEDTAVYYCNRYGNSYYFPPGPLYNYWGQGTQVTVSS | high polyreactivity
QVQLVESGGGLVQAGGSLRLSCAASGRIFFIYAMGWYRQAPGKERELVAAITWRGGRTYYADSVKGRFTISRDNAKNTVYLQMNSLKPEDTAVYYCAADYRDSYLFYYWGQGTQVTVSS | high polyreactivity
QVQLVESGGGLVQAGGSLRLSCAASGRIFFIYVMGWYRQAPGKERELVAGITRGGSTNYADSVKGRFTISRDNAKNTVYLQMNSLKPEDTAVYYCAAAVLSYRHAHAGYYYGKGDYWGQGTQVTVSS | high polyreactivity
QVQLVESGGGLVQAGGSLRLSCAASGRIFFNAMGWYRQAPGKEREFVAAIRTSGGTTYYADSVKGRFTISRDNAKNTVYLQMNSLKPEDTAVYYCAAWRWYYPVRNRAQYVRGDYWGQGTQVTVSS | high polyreactivity
QVQLVESGGGLVQAGGSLRLSCAASGRIFFPNAMGWYRQAPGKERELVAAITSGSSTYYADSVKGRFTISRDNAKNTVYLQMNSLKPEDTAVYYCAARGRRGEAYRSVYYWGQGTQVTVSS | high polyreactivity
QVQLVESGGGLVQAGGSLRLSCAASGRIFFRNAMGWYRQAPGKERELVAVINTGGSTNYADSVKGRFTISRDNAKNTVFLQMNSLKPEDTAVYYCAVDRASRRTYNQYGFWGQGTQVTVSS | high polyreactivity
QVQLVESGGGLVQAGGSLRLSCAASGRIFFRNVMGWYRQAPGKERELVATITSGGRTYYADSVKGRFTISRDNAKNTVYLQMNSLKPEDTAVYYCAAKRYLHRREYWGQGTQVTVSS | high polyreactivity
QVQLVESGGGLVQAGGSLRLSCAASGRIFFTKAMGWYRQAPGKERELVAAISKSGARTYYADSVKGRFTISRDNAKNTVYLQMNSLKPEDTAVYYCAADVSVSGYYYWGQGTQVTVSS | high polyreactivity
QVQLVESGGGLVQAGGSLRLSCAASGRIFFTNAMGWYRQAPGKEREFVAGISFSGDGRTYYADSVKGRFTISRDNAKNTVYLQMNSLKPEDTAVYYCAAPHRSRTHELDYWGQGTQVTVSS | low polyreactivity
QVQLVESGGGLVQAGGSLRLSCAASGRIFFTNAMGWYRQAPGKERELVATISSSDGSTYYADSVTGRFTISRDNAKNTVYLQMNSLKPEDTAVYYCAARYRSTFYNTYDRVYWGQGTQVTVSS | high polyreactivity
QVQLVESGGGLVQAGGSLRLSCAASGRIFFTYAMGWYRQAPGKERELVASITGSGGSTYYADSVKGRFTISRDNAKNTVYLQMNSLKPEDTAVYYCAAALFRRQLYRKFYYWGQGTQVTVSS | low polyreactivity
QVQLVESGGGLVQAGGSLRLSCAASGRIFFVNTMGWYRQAPGNERELVATLSWSGGSTYYADSVKGRFTISRDNAKNTVYLQMNSLKPEDTAVYYCAAVGYTTYRRYDYWGQGTQVTVSS | low polyreactivity
QVQLVESGGGLVQAGGSLRLSCAASGRIFFWYARGWYRQAPGKEWELVAGITSGGSTNYADSVKGRFTISRDNAKNTVYLQMNSLKPEDTAVYYCAKRSYRTHTYDYWGQGTQVTVSS | low polyreactivity
QVQLVESGGGLVQAGGSLRLSCAASGRIFFYNAMGWYRQAPGKERELVATINWSGGSTYYADSVKGRFTISRDYAKNTVYLQMNSLKPEDTAVYYCNALRASTTALWGGYWGQGTQVTVSS | high polyreactivity
QVQLVESGGGLVQAGGSLRLSCAASGRIFFYNVMGWYRQAPGKERELVASIRWSGSGTYYADSVKGRFTISRDDAKNTVYLQMNCLKPEETAVYYCAVLGRVGYGVYPVDYWGQGTQVTVSS | high polyreactivity
QVQLVESGGGLVQAGGSLRLSCAASGRIFFYYAMGWYRQAPGTERELVAAISKSGGRTYYADSVKGRFTISRDNAKNTVYLQMNSLKPEDTAVYYCAAYSAHDSDYWGQGTQVTVSS | high polyreactivity
QVQLVESGGGLVQAGGSLRLSCAASGRIFGANAMGWYRQAPGKERELVAAIDDGVSTNYADSVKGRFTISRDNAKNTVYLQMNSLKPEDTAVYYCAKRSFVGGRGRDSDYWGQGTQVTVSS | low polyreactivity

Sequence | polyreactivity (PSR sort gate)
QVQLVESGGGLVQAGGSLRLSCAASGRIFGANAMGWYRQAPGKERELVAAISGSGGRTYYADSVKGRFTISRDNAKNTVYLQMNSLKPEDTAVYYCAAGRPTYSRYFGFEYWGQGTQVTVSS | high polyreactivity
QVQLVESGGGLVQAGGSLRLSCAASGRIFGAYAMGWYRQAPGKERELVAAISSGGSTNYADSVKGRFTISRDNAKNTVYLQMNSLKPEDTAVYYCAAERLYSWYYYKYNSEFYYWGQGTQVTVSS | low polyreactivity
QVQLVESGGGLVQAGGSLRLSCAASGRIFGAYAMGWYRQAPGKERELVAAITSRGGNTYYADSVKGRFTISRDNAKNTVYLQMNSLKPEDTAVYYCAARHDKLRQYYVGQSAFDYWGQGTQVTVSS | low polyreactivity
QVQLVESGGGLVQAGGSLRLSCAASGRIFGAYTMGWYRQAPGKERELVAVISSRGTDTYYADSVKGRFTISRDNAKNTVYLQMNSLKPEDTAVYYCAKRWWYTTSPRRSGDYWGQGTQVTVSS | high polyreactivity
QVQLVESGGGLVQAGGSLRLSCAASGRIFGDYAMGWYRKAPGKERELLAAISWSDGSTYYADSVKGRFTISRDNAKNTVYLQMNSLKPEDTAVYYCAAYGWGYRYVDVVVSDFYYWGQGTQVTVSS | low polyreactivity
QVQLVESGGGLVQAGGSLRLSCAASGRIFGDYAMGWYRQAPGKERELVADITWSGGSTYYADSVKGRVTISRDNAKHTVYLQMNSLKPEDTAVYYCNADVWFYYTFDYWGQGTQVTVSS | low polyreactivity
QVQLVESGGGLVQAGGSLRLSCAASGRIFGFNAMGWYRQATGKERELVAAISWRGGSTYYADSVKGRFTISRDNAKNTVYLQMNSLKPEDTAVYYCAAGRYLRSGFGEGYYWGQGTQVTVSS | high polyreactivity
QVQLVESGGGLVQAGGSLRLSCAASGRIFGFYALGWYRQAPGKEREFVASISVRGASTYADSVKGRFTISRDNAKNTVYLQMYSLKPEDTAVYYCNKAVANDDGLEYWGQGTQVTVSS | high polyreactivity
QVQLVESGGGLVQAGGSLRLSCAASGRIFGFYAMGWYRQAPGKERELVAAISSRGGRTYYADSVKGRFTISRDNAKNTVYLQMNSLKPEDTAVYYCAAGDGKYGRDGDYWGQGTQVTVSS | high polyreactivity
QVQLVESGGGLVQAGGSLRLSCAASGRIFGFYAMGWYRQAPGKERELVARITLSGGRTYYADSVKGRFTISRDNAKNTVYLQMNSLKPEDTAVYYCAADSIGRLWGYGYWGQGTQVTVSS | high polyreactivity
QVQLVESGGGLVQAGGSLRLSCAASGRIFGFYAMGWYRQAPGKERELVAVISNGGGSTYYADSVKGRFTISRDNAKNTVYLQMTSLKPEDTAVYYCAVALKYPRRYYYWGQGTQVTVSS | high polyreactivity
QVQLVESGGGLVQAGGSLRLSCAASGRIFGFYARGWYRQAPGKEREFVADITSGGSTNYADSVKGRFTISRDNAKNTVYLQMNSLKPEDTAVYYCNALSYVWYRYPGNWDEDDYWGQGTQVTVSS | low polyreactivity
QVQLVESGGGLVQAGGSLRLSCAASGRIFGGYAMGWYRQAPGKERELVAAIDLSGGSTYYADSVKGRFTISRDNAKNTVYLQMNSLKPEDNAVYYCAADAYPVYYYLSTYDPWYDYWGQGTQVTVSS | low polyreactivity
QVQLVESGGGLVQAGGSLRLSCAASGRIFGGYAMGWYRQAPGKERELVAAISGSGGRTYYADSVKGRFTISRDNAKNTVYLQMNSLKPEDTAVYYCNKGYVYGHEYWGQGTQVTVSS | high polyreactivity
QVQLVESGGGLVQAGGSLRLSCAASGRIFGGYAMGWYRQAPGKERELVAVISRGGSITDYADSVKGRFTISRDNAKNTVYLQMNSLKPEDTAVYYCAARICGGSYWGQGTQVTVSS | high polyreactivity
QVQLVESGGGLVQAGGSLRLSCAASGRIFGGYAMGWYRQAPGKEWEVVAAIRDSGRTYYADSVKGRFTISRDNAKNTVYLQMNSLKPEDTAVYYCAADAHSSYSPFRWYDYWGQGTQVTVSS | low polyreactivity
QVQLVESGGGLVQAGGSLRLSCAASGRIFGGYTMGWYRQAPGKERELVAAITGSGGRTYYADSVKGRFTISRDNAKNTVYLQMNSLKPEDTAVYYCNTVYRYRYYWGQGTQVTVSS | high polyreactivity
QVQLVESGGGLVQAGGSLRLSCAASGRIFGGYVMGWYRQAPGKEREFVAAISGRGTSTSYADSVKGRFTISRDNAKNTVYVQMNSLKPEDTAVYYCAARPKSDYSNGGNYWGQGTQVTVSS | high polyreactivity
QVQLVESGGGLVQAGGSLRLSCAASGRIFGHYAMGWYRQAPGKERELVAAIRYSAGRTYYAGSVKGRFTISRDNAKNTVYLQMNSLKPEDTAVYYCAKTSRYLTGGGDYWGQGTQVTVSS | high polyreactivity
QVQLVESGGGLVQAGGSLRLSCAASGRIFGINAMGWYRQAPGKERELVAAITWSGDGTYYADSVKGRFTISRDNAKNTVYLQMNSLKPEDTAVYYCARYDYWGHGTQVTVSS | low polyreactivity
QVQLVESGGGLVQAGGSLRLSCAASGRIFGINAMGWYRQGPGKERELVAASRSSDVSTYNADSVKGRFTISRDNAKNTVYLQMNSLKPEDTAVYYCAAAYRTQIYRNEYWGQGTQVTVSS | low polyreactivity
